In publication PMC4288174 (Nucleic Acids Research, 2014):

Target: Recombinant hemagglutinin-tagged full-length CSB (human, UniProt Q03468 1-1493)
Experiment: pull-down; ΔN-SNM1A (500 ng) with or without HA-CSB (500 ng) and α-HA magnetic beads; 20 mM HEPES pH 7.9, 4 mM MgCl2, 0.05 mM ATP, 40 μg/ml BSA, 1 mM DTT, 4°C, 2 h; silver stain
Conditions: both partners purified

Recombinant hemagglutinin-tagged full-length CSB, sequence (Q03468 whole entry): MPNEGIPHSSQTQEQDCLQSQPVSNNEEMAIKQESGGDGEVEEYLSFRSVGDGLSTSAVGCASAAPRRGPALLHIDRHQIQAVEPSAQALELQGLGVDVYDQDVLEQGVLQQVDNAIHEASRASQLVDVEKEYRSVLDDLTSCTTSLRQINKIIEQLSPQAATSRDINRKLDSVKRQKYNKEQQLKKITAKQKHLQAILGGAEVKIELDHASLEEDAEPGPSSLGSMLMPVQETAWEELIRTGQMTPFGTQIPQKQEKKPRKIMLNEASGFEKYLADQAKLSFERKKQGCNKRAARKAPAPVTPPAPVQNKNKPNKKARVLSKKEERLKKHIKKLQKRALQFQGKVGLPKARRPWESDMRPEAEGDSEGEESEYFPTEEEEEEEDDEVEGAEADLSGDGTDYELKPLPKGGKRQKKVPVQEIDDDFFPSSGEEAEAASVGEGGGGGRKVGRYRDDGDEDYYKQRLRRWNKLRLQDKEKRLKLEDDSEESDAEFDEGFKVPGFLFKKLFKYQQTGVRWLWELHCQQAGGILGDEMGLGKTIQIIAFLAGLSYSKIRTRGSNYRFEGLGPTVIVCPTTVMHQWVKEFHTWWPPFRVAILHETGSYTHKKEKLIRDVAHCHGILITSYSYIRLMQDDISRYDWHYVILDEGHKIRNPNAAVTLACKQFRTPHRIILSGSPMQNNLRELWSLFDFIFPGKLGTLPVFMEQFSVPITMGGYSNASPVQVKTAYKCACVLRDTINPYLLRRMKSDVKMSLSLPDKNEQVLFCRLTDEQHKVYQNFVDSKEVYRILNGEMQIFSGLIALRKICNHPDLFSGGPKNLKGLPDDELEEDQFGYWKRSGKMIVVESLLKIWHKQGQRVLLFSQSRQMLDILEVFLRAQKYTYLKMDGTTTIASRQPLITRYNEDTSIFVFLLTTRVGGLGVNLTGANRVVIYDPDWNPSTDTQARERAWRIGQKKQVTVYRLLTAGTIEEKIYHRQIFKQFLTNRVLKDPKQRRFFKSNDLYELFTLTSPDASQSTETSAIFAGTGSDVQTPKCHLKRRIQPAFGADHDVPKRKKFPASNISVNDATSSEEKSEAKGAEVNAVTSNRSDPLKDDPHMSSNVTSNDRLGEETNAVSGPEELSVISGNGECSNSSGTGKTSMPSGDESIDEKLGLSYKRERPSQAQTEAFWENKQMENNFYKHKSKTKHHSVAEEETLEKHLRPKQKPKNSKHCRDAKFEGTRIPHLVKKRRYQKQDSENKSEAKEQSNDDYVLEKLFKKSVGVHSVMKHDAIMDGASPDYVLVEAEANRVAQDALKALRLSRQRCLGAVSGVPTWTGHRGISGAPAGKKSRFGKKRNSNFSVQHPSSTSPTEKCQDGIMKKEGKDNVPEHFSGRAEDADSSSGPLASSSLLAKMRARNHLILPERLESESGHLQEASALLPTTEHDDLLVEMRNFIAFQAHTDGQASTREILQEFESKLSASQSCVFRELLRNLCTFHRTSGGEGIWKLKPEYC

binding result: binds
B1: SNM1A nuclease fragment consisting of residues 608 to 1040 (domain or fragment, human, UniProt Q6PJP8 608-1040, looked up)
chain: SDLEFDASTLHESQLSVELSSERSQRQKKRCRKSNSLQEGACQKRSDHLINTESEAVNLSKVKVFTKSAHGGLQRGNKKIPESSNVGGSRKKTCPFYKKIPGTGFTVDAFQYGVVEGCTAYFLTHFHSDHYAGLSKHFTFPVYCSEITGNLLKNKLHVQEQYIHPLPLDTECIVNGVKVVLLDANHCPGAVMILFYLPNGTVILHTGDFRADPSMERSLLADQKVHMLYLDTTYCSPEYTFPSQQEVIRFAINTAFEAVTLNPHALVVCGTYSIGKEKVFLAIADVLGSKVGMSQEKYKTLQCLNIPEINSLITTDMCSSLVHLLPMMQINFKGLQSHLKKCGGKYNQILAFRPTGWTHSNKFTRIADVIPQTKGNISIYGIPYSEHSSYLEMKRFVQWLKPQKIIPTVNVGTWKSRSTMEKYFREWKLEAGY
